Measured values taken from publication PMC6935017 (Cell, 2018).

B1: Streptococcus thermophilus Csm2 (natural protein, Streptococcus thermophilus ND03, UniProt A0A0A7HIX1 1-121, looked up)
chain: MAILTDENYVDKAERAISLLEKDNKGNYLLTTSQIRKLLSLCSSLYDRSKERKFDELINDVSYLRVQFVYQAGREIAVKDLIEKAQILEALKEIKDRETLQRFCRYMEALVAYFKFYGGKD
B2: Streptococcus thermophilus Csm3 (natural protein, Streptococcus thermophilus ND03)
chain: MTFAKIKFSAQIRLETGLHIGGSDAFAAIGAIDSPVIKDPITNIPIIPGSSLKGKMRTLLAKVYNEKVAEKPSDDSDILSRLFGNSKDKRFKMGRLIFRDAFLSNADELDSLGVRSYTEVKFENTIDRITAEANPRQIERAIRNSTFDFELIYEITDENENQVEEDFKVIRDGLKLLELDYLGGSGSRGYGKVAFEKLKATTVFGNYDVKTLNELLTAEV

Target: the molecule itself
Test: crystal structure

| Protein | stoichiometry N |
| --- | --- |
| B1 | 2 |
| B2 | 3 |
